This is an account of results in patent publication US20030198957.

In the case of “human NOV8 (EDSP, Endothelial Dual Specificity Phosphatase domain-containing protein)”, the “in vitro phosphorylation (dephosphorylation) assay” value with ERK was “can dephosphorylate ERK and JNK”; in the data set on P38 MAP kinase, “has little activity on P38 MAP kinase”; in the data set with JNK, “can dephosphorylate ERK and JNK”.
